US20240059769A1 (BIOLOJIC DESIGN, published 2024)
Numbering of substitutions follows the chain as printed.

Key:
human TSLP [1] = target: T1, human TSLP (human, UniProt Q969D9 29-159); experiment: cell-based or functional assay
recombinant human IL-13 [2] = target: T2, recombinant human IL-13 (human, UniProt P35225 35-146); experiment: cell-based or functional assay
human TSLP [3] = target: T1, human TSLP; experiment: SPR
recombinant human IL-13 [4] = target: T2, recombinant human IL-13; experiment: SPR
hTSLP-His [5] = target: T3, hTSLP-His (human, UniProt Q969D9 29-159, limits assumed); experiment: cell-based or functional assay
human TSLP [6] = target: T1, human TSLP; experiment: SPR (Biacore T200), antibody captured, cytokine analyte 30-0.153 nM
Description: CMS chip was coated with human antibody capture kit to obtain 3000-5000 RU and the antibody, served as the capture, was injected at a flow rate of 10 ul/ml to obtain 250-350 RU.

recombinant human IL-13 [7] = target: T2, recombinant human IL-13; experiment: cell-based or functional assay; remark: listed apart in the source
[8] = target: T4, cynomolgus monkey (cyno) TSLP (cynomolgus monkey, UniProt A0A7N9CAT7 29-159); experiment: SPR
T4 construct: also called cTSLP; cynomolgus TSLP
T4 sequence (A0A7N9CAT7 entry or part of it): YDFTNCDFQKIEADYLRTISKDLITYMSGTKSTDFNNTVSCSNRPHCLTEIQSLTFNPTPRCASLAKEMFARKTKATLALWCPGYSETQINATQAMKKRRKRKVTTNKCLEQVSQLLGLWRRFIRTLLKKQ

[9] = target: T5, recombinant cynomolgus monkey IL-13 (cynomolgus monkey, UniProt Q0PW92 21-132); experiment: SPR
T5 construct: bought; also called rc-IL-13; cIL-13
T5 sequence (Q0PW92 entry or part of it): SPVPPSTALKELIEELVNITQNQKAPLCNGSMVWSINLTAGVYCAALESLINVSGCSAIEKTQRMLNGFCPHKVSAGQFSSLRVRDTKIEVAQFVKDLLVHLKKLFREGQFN

recombinant human IL-13 [10] = target: T2, recombinant human IL-13; experiment: SPR (Biacore T200), antibody captured, hIL-13 analyte 20-0.6 nM
Description: Recombinant cyno IL-13 (rc-IL-13) was tested at 200 nM with a 2-fold dilution (FIGS. 5C-5D).

IL-2 [11] = target: T6, IL-2 (Homo sapiens (Human), UniProt P60568 21-153); experiment: specificity ELISA, 250 ng ligand coated
T6 sequence (P60568 21-153 limits assumed): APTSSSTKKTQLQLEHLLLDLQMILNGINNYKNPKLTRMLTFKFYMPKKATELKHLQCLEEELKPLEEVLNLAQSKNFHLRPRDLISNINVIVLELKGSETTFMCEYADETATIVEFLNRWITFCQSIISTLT

recombinant human IL-13 [12] = target: T2, recombinant human IL-13; experiment: cell-based or functional assay; remark: listed apart in the source
BSA = BSA (UniProt P02769 25-607); experiment: ELISA, 250 ng coated ligand per well, 100 nM IgG, anti-human Fc-HRP
Sequence of BSA (P02769 25-607 limits assumed): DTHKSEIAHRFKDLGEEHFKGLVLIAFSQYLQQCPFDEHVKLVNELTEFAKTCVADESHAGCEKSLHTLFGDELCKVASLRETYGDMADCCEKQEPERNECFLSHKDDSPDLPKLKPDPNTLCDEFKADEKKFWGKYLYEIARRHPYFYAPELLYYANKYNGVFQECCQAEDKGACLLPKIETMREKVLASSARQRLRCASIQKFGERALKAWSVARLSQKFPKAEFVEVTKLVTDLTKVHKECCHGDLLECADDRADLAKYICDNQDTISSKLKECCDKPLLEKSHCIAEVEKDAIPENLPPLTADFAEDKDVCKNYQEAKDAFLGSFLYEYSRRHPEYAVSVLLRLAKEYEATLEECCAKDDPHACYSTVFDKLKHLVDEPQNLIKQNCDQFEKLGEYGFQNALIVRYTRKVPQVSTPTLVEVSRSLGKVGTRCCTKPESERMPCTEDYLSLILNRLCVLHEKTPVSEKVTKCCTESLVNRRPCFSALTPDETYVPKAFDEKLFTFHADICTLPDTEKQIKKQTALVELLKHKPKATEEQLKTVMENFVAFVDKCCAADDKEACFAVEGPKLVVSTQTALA

[13] = target: T4, cynomolgus monkey (cyno) TSLP; experiment: ELISA, ligand coated, IgG 1-1000 nM
human TSLP [14] = target: T1, human TSLP; experiment: ELISA, ligand coated, IgG 1-1000 nM
[15] = target: T5, recombinant cynomolgus monkey IL-13; experiment: ELISA, ligand coated, IgG 1-1000 nM
recombinant human IL-13 [16] = target: T2, recombinant human IL-13; experiment: SPR, steady state, antibody captured, hIL-13 analyte
Description: Subsequent to a cycle, the analyte and tested antibody were stripped from the chip and new tested Ab was loaded on the chip as described above. KD was determined at a steady state condition.

human TSLP [17] = target: T1, human TSLP; experiment: SPR (ProteOn XPR36), antibody captured, hTSLP analyte 3.2-0.2 nM
hTSLP-His [18] = target: T3, hTSLP-His; experiment: competition ELISA, TSLP-R-Fc coated, 3 nM hTSLP-His pre-mixed with IgG
Excerpt: Wells were then washed three times with TBS 0.05% tween (TBS-T) and blocked with TBS-T containing 2% BSA (w/v).

recombinant human IL-13 [19] = target: T2, recombinant human IL-13; experiment: SPR; remark: listed apart in the source
human TSLP [20] = target: T1, human TSLP; experiment: SPR; remark: listed apart in the source
hTSLP-His [21] = target: T3, hTSLP-His; experiment: cell-based or functional assay; remark: listed apart in the source
IL-2 [22] = target: T6, IL-2; experiment: ELISA, 250 ng coated ligand per well, 100 nM IgG, anti-human Fc-HRP
IL-4 = target: T7, IL-4 (Homo sapiens (Human), UniProt P05112 25-153); experiment: as above
T7 sequence: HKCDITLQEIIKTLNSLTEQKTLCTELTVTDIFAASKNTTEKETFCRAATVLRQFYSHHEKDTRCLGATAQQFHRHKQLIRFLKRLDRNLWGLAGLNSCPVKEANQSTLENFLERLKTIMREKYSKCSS

hTSLP-His [23] = target: T3, hTSLP-His; experiment: competition ELISA, TSLP-R coated, soluble TSLP-R as competitor for hTSLP

T2 sequence (P35225 35-146 limits assumed): as the sequence (Q0PW92 entry or part of it) above, with S1G, K10R, V42M, N67S, R83H, V100L counted along it

B1: BDG38.094 (antibody, V domains shown)
VH: QMQLVESGGGVVQPGRSLRLSCAASGFAFRTYGMHWVRQAPGKGLEWVAVIWDDGSNTHYADSVKGRFTITRDNSKNTLNLQMNSLRAEDTAVYYCVRAPQWYLTAEAFDLWGQGTMVTVSS
VL: SYVLTQPPSVSVAPGETASITCGGNLIGAYLVHWYQQKPGQAPLLVIYDDVDRPARIPERFSGSNSGNTATLTISRVEAGDEADYYCQVWDHNSNHMVFGGGTKLTVL
notes: IgG1
Human TSLP [1]
  IC50 TARC: 0.356 nM
Recombinant human IL-13 [2]
  IC50 CD23: 0.172 nM
Human TSLP [3]
  Kd: 0.0127 pM
  koff: 1.82e-07 s⁻¹
  kon: 1.44e+07 M⁻¹ s⁻¹
Recombinant human IL-13 [4]
  Kd: 0.0138 nM
  koff: 9.36e-05 s⁻¹
  kon: 6.77e+06 M⁻¹ s⁻¹
hTSLP-His [5]
  IC50 [pM], STAT5 phosphorylation inhibition in MUTZ5 cells: 27.2 pM
Human TSLP [6]
  Kd: < 0.001 nM
Recombinant human IL-13 [7]
  HEK-IL-13 [nM] (IC50, STAT6 reporter): 0.0487 nM
[8]
  Kd: 0.00275 nM
  koff: 3.18e-05 s⁻¹
  kon: 1.16e+07 M⁻¹ s⁻¹
[9]
  Kd: 0.27 nM
  koff: 0.006 s⁻¹
  kon: 2.22e+07 M⁻¹ s⁻¹

B2: BDG33.025 (antibody, V domains shown)
VH: B1 VH with A28T, V50D, D53Y, T58K, V97A, T105V, A108P
VL: SYVLTQPPSVSVAPGQTARITCGGNLIGSKLVHWYQQKPGQAPVLVVYDDSDRPSLIPERFSGSNSGNTATLTISRVEAGDEADYYCQVWDSSSDGVVFGGGTKLTVL
notes: standard IgG; also called BGD33.025; BDG33.0025
Recombinant human IL-13 [10]
  Kd: 0.903 nM
  koff: 0.0036 s⁻¹
  kon: 4.07e+06 M⁻¹ s⁻¹
IL-2 [11]
  binding result: no binding (tested: 100 nM IgG)
Recombinant human IL-13 [12]
  IC50, HEK-Blue IL-4/IL-13 reporter (0.4 nM rh-IL-13): 25 nM
BSA
  binding result: no binding (tested: 100 nM)
[13]
  EC50: 148 nM
Human TSLP [14]
  EC50: 12.8 nM
[15]
  EC50: 1.5 nM

B3: BDG33.004 (antibody, V domains shown)
VH: B1 VH with A28T, D53Y, T58K, V97A, Y103M, T105V
VL: B2 VL with L56R, G96H
notes: human IgG1, lambda light chain; also called BGD33.004; Clone C6 (as IgG1)
Recombinant human IL-13 [16]
  Kd: 57.4 nM
Human TSLP [17]
  Kd: 3.33 nM
  koff: 0.00114 s⁻¹
  kon: 344000 M⁻¹ s⁻¹

B4: BDG33.023 (antibody, V domains shown)
VH: B1 VH with D53Y, V97A, T105S
VL: B2 VL with L56R, S92H, G96H
notes: standard IgG; also called BGD33.023; BDG33.0023
Recombinant human IL-13 [10]
  Kd: 3.65 nM
  koff: 0.0157 s⁻¹
  kon: 4.31e+06 M⁻¹ s⁻¹
hTSLP-His [18]
  IC50: 0.41 nM
Recombinant human IL-13 [19]
  Kd: 3.01 nM
  koff: 0.00457 s⁻¹
  kon: 1.52e+06 M⁻¹ s⁻¹
Human TSLP [20]
  Kd: 0.0625 nM
  koff: 6.84e-05 s⁻¹
  kon: 1.09e+06 M⁻¹ s⁻¹
hTSLP-His [21]
  IC50, TSLP dependent pSTAT5 activation in MUTZ5 cells (14 pM TSLP): 13 pM
Recombinant human IL-13 [12]
  IC50, HEK-Blue IL-4/IL-13 reporter (0.4 nM rh-IL-13): 1.3 nM
BSA
  binding result: no binding (tested: 100 nM)
IL-2 [22]
  binding result: no binding (tested: 100 nM)
IL-4
  binding result: no binding (tested: 100 nM)
[13]
  EC50: 8.2 nM
Human TSLP [14]
  EC50: 2.5 nM
[15]
  EC50: 7.1 nM

B5: BDG33.003 (antibody, V domains shown)
VH: B1 VH with A28T, D53Y, T58K, V97A, Y103E, L111I
VL: B2 VL
notes: also called BGD33.003; Clone C2 (as IgG1)
Recombinant human IL-13 [16]
  Kd: 21.6 nM
Human TSLP [17]
  Kd: 4.5 nM
  koff: 0.00129 s⁻¹
  kon: 287000 M⁻¹ s⁻¹

B6: TSLP-R-Fc tag (Fc fusion, UniProt Q9HC73 23-231, looked up)
chain: QGGAAEGVQIQIIYFNLETVQVTWNASKYSRTNLTFHYRFNGDEAYDQCTNYLLQEGHTSGCLLDAEQRDDILYFSIRNGTHPVFTASRWMVYYLKPSSPKHVRFSWHQDAVTVTCSDLSYGDLLYEVQYRSPFDTEWQSKQENTCNVTIEGLDAEKCYSFWVRVKAMEDVYGPDTYPSDWSEVTCWQRGEIRDACAETPTPPKPKLSK
notes: bought; also called TSLP receptor; not shown: Fc tag
hTSLP-His [23]
  IC50: 3 nM
